Measurements from paper PMC11145796, “Environmental activity-based protein profiling for function-driven enzyme discovery from natural communities” (Environmental Microbiome, 2024).

T1: putative esterase / UPF0227 protein ExploCarb_3811S_S4_483_length_13114_cov_941_5 (Sulfurihydrogenibium sp., UniProt A0A2J6WYH8)
T1 construct: gene C0178_06060
T1 sequence (A0A2J6WYH8 1-191): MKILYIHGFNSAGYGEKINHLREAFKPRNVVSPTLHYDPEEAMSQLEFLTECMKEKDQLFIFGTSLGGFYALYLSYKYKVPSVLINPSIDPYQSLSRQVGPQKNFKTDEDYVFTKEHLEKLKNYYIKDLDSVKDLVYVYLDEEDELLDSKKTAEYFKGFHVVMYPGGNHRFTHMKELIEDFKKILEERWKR


Legend:
[1] = biological target: T1, putative esterase / UPF0227 protein ExploCarb_3811S_S4_483_length_13114_cov_941_5
[2] = substrate: CC(=O)Oc1ccc([N+](=O)[O-])cc1; experiment: pNP-ester hydrolysis kinetics; format: biochemical, Sulfurihydrogenibium sp.; details: pH 8.0, 70 °C, substrate up to 0.7 mM
[3] = substrate: CCCC(=O)Oc1ccc([N+](=O)[O-])cc1; experiment: pNP-ester hydrolysis kinetics; format: biochemical, Sulfurihydrogenibium sp.; details: pH 8.0, 70 °C, substrate up to 0.7 mM
[4] = substrate: CCCCCCCC(=O)Oc1ccc([N+](=O)[O-])cc1; experiment: pNP-ester hydrolysis kinetics; format: biochemical, Sulfurihydrogenibium sp.; details: pH 8.0, 70 °C, substrate up to 0.7 mM

Molecule | competition with FP-alkyne labelling of purified esterase (pre-incubation) [1] | Km [2] [mM] | Km [3] [mM] | Km [4] [mM]
CCOP(=O)(OCC)Oc1ccc([N+](=O)[O-])cc1 [paraoxon] | could be strongly diminished by pre-incubation with the generic serine esterase inhibitor paraoxon |  |  | 
putative esterase / UPF0227 protein ExploCarb_3811S_S4_483_length_13114_cov_941_5 (Sulfurihydrogenibium sp.) (protein, 191 amino acids; codon-optimized gene in pET-28b(+), expressed in E. coli Rosetta(DE3), purified; motif G63-T64-S65-L66-G67) MKILYIHGFNSAGYGEKINHLREAFKPRNVVSPTLHYDPEEAMSQLEFLTECMKEKDQLFIFGTSLGGFYALYLSYKYKVPSVLINPSIDPYQSLSRQVGPQKNFKTDEDYVFTKEHLEKLKNYYIKDLDSVKDLVYVYLDEEDELLDSKKTAEYFKGFHVVMYPGGNHRFTHMKELIEDFKKILEERWKR |  | 0.12 | 0.18 | 0.16
